Measured values as given in article PMC5786281 (Oncogene, 2017).

Molecular target: EZH2 (endogenous) (human (endogenous in MDA-MB-231, …, UniProt Q15910 1-746))
Experiment: co-IP

Sequence of EZH2 (endogenous) (human (Q15910 whole entry): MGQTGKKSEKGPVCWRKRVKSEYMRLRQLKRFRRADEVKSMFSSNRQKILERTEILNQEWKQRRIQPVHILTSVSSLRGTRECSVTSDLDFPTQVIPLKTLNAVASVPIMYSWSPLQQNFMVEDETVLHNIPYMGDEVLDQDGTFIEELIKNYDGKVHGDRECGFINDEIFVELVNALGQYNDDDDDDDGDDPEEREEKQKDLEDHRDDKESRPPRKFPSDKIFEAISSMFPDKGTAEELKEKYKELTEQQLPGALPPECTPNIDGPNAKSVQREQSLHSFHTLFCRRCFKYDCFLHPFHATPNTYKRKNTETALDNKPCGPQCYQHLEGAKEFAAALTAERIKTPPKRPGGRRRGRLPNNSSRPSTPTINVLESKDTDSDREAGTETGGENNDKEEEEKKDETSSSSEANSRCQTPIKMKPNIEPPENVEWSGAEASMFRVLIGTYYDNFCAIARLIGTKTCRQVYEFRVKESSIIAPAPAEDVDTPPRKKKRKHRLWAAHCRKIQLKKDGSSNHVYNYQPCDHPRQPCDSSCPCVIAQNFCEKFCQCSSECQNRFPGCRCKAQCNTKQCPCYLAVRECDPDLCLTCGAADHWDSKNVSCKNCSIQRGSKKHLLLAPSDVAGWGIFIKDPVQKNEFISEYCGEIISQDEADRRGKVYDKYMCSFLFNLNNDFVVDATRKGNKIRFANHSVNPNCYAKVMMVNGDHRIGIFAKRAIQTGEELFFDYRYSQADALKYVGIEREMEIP

- fold binding with PARPi against without PARPi: ~4.4 times
B1: EED (endogenous) (natural protein)
chain: not shown
